One molecule from paper PMC1236978 can be followed below.

This data set has as its target T1, HutP (V51I) (Bacillus subtilis, UniProt P10943 1-148, V51I).
T1 sequence: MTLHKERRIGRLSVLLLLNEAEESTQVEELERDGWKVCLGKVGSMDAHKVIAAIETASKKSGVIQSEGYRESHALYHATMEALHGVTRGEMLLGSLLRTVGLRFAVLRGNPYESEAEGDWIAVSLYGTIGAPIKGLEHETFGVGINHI
Put plainly: EMSA. On the technique in general: Mobility shift assays separate free from complexed probe on a gel.

B1: 21mer hut RNA (minimal RNA element) (ssRNA)
RNA: CAUAGAUCUUAGACGAUAGGG
Regarding B1, the binding result was “binds”.
